Assay results taken from patent publication US20100330072A1 (published 2010).
Residue numbers refer to the chain shown, from its start.

T1: recombinant mature myostatin (human, produced in E. coli) (human, UniProt O14793 267-375)
T1 construct: mature; also called GDF-8
T1 sequence (looked up): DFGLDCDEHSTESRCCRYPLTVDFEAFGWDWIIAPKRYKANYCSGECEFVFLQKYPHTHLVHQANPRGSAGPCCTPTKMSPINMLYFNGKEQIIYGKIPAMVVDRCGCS

B1: 2x mTN8-19-7 peptibody (Fc fusion)
chain: GGGGGAQLADHGQCIRWPWMCPPEGWELEGSGSATGGSGSTASSGSGSATGLADHGQCIRWPWMCPPEGWELE
notes: Fc dimer; also called 2×mTN8-19-7
B2: 2x mTN8-19-21 peptibody (Fc fusion)
chain: GGGGGAQSEYQGLCTRWPWMCPPQGWKLEGSGSATGGSGSTASSGSGSATGSEYQGLCTRWPWMCPPQGWKLE
notes: Fc dimer
B3: 2x mTN8-19-33 peptibody (Fc fusion)
chain: B2 chain with S8P, Y10S, L13H, K27G, S52P, Y54S, L57H, K71G
notes: Fc dimer; also called 2×mTN8-19-33

What follows are binders tested against T1, recombinant mature myostatin (human, …) (assay: KinExA solution equilibrium assay or BIAcore (table does not say which)).

Kd [pM] | Binder
12 | B1
6 | B2
3 | B3
